Results reported in patent publication US8247376B2, “NGAL for reduction and amelioration of ischemic and nephrotoxic injuries” (The Trustees of Columbia University, priority 2004, dated 2012).
“Also recorded” adds a separate entry of the source.

Legend:
[1] = test system: mouse model of ATN or ischemia/reperfusion injury; assay: Mouse model of ATN (30 min clamp, contralateral nephrectomy): plasma creatinine; type: in vivo, mice
Experimental: Male C57BL/6 mice (20-25 gr; Charles River) were anesthetized with intraperitoneal pentobarbital (50 mg/kg) and placed on a heating pad under a warming light to maintain 37© core body temperature. Kidneys were exposed through an abdominal section and the right kidney was either removed or its vascular pedicle and ureter ligated. The vascular pedicle of the left kidney or both kidneys was clamped by a microaneurysm clip (Kent Scientific) for 30 minutes after right nephrectomy. This period of ischemia generated reproducible renal injury but minimized mortality. During the procedure, PBS (0.5 ml) was used to dampen the peritoneum. The animal was closed with 5-0 Nylon. Saline, NGAL, retinol-loaded retinol binding protein (RBP), enterochelin, or desferroxamine mesylate (DFO) were injected into the peritoneum or subcutaneously 15 min. prior to ischemia or 1-2 hr after reperfusion.
(§1) After 6 or 24 hr of reperfusion, heparinized plasma, urine and kidney samples were obtained to measure NGAL (polyclonal 1:500), Heme oxygenase-1 (Stressgen, 1:2000), E-cadherin (BD Transduction Labs, 1:2000), N-cadherin (BD Transduction Labs, 1:3000) and GAPDH (Chemicon International, 1:3000) using immunoblots. Plasma was also used for creatinine and blood urea nitrogen colorimetric assays. Sagittal sections of the kidney were fixed in 4% formalin, or were snap frozen for mRNA and protein analysis. Paraffin-embedded sections (5 μm) were stained with hematoxylin-eosin or by an in situ kit (Fluorescein-TUNEL, Roche) for apoptotic nuclei or for total nuclei (Toprol, Molecular Probes). For cell proliferation analysis, BrdU was injected into the peritoneum 1 hour before sacrifice, and cryostat sections were stained with anti-BrdU (Roche) according to the manufacturer.

[2] = test system: ischemia-reperfusion injury in mice; assay: Histopathology scoring of tubule damage (dilatation, casts, necrosis) after ischemia-reperfusion; type: in vivo; conditions: NGAL before, during or after ischemia, 24 h reflow, vs saline controls
Experimental: Purified endotoxin-free NGAL was administered either intravenously into mice via tail vein injections, subcutaneously, or intraperitoneally. In preliminary studies, animals were treated with three different concentrations of NGAL (50, 100, or 250 μg of a 250 μg/100 solution), subjected to 30 minutes of bilateral renal artery clamping one hour later, and examined after 24 hours of reflow. […] All subsequent studies as reported here were carried out using the 250 μg dose of NGAL. […]
Kidney sections of 4 microns were stained with hematoxylin-eosin and scored for histopathologic damage to the tubules in a blinded fashion, as previously described by Yokota N. et al., Am J Physiol Renal Physiol 285: F319-F325, 2003 and Kjeldsen L. et al., Biochim Biophys Acta 1482: 272-283, 2000. Each parameter was assessed in five high power fields (40×) in the inner cortex and outer medullary regions (where the tubular damage was most evident), and an average determined for each section. […] Each parameter was scored on a scale of 0 to 4, ranging from none (O), mild (1), moderate (2), severe (3), to very severe/extensive (4).

heme oxygenase-1 (HO-1) = assay: Heme oxygenase-1 immunoblot of kidney; type: in vivo, mice
Description: as §1

[3] = Uptake of intravenous NGAL into kidney and urine (immunofluorescence, Western blot); type: in vivo, mice; conditions: within one hour of iv injection of 250 μg
Experimental: (§2) Purified endotoxin-free NGAL was administered either intravenously into mice via tail vein injections, subcutaneously, or intraperitoneally. In preliminary studies, animals were treated with three different concentrations of NGAL (50, 100, or 250 μg of a 250 μg/100 solution), subjected to 30 minutes of bilateral renal artery clamping one hour later, and examined after 24 hours of reflow. […] All subsequent studies as reported here were carried out using the 250 μg dose of NGAL. Comparisons were made between five different animal groups: non-ischemic controls (n=8), ischemic controls pre-treated with saline alone (n=8), NGAL pre-treated one hour prior to renal artery clamping (n=6), NGAL treated during renal artery clamping (n=6), and NGAL treated one hour post renal artery clamping (n=6).
For NGAL detection, frozen kidney sections were permeabilized with 0.2% Triton X-100 in PBS for 10 min, blocked with goat serum for 1 hr, and incubated with primary antibody to NGAL (1:500 dilution) for 1 hr. Slides were then exposed for 30 min in the dark to secondary antibodies conjugated with Cy5 (Amersham, Arlington Heights, Ill.), and visualized with a fluorescent microscope (Zeiss Axiophot) equipped with rhodamine filters.

cortical tubules [4] = assay: BrdU uptake: percent of cortical tubules with BrdU-positive cell; type: in vivo, mice; conditions: NGAL pretreated, 24 hours after insult; ischemic 1.9%, sham 3.7%
Description: as §1

N-cadherin = N-cadherin immunofluorescence and immunoblot in ischemic kidney; type: in vivo, mice; conditions: pre-treatment with NGAL, 6 or 24 hours of reperfusion
Description: as §1

cortical tubules [5] = assay: Fluorescein-TUNEL: percentage of cortical tubules with TUNEL-positive cell; type: in vivo, mice; conditions: 24 h after reperfusion, SEM; ischemic 11.5%, sham 0.5%
Description: as §1

tubule epithelial cells [6] = assay: TUNEL apoptosis assay on kidney sections (nuclei per 100 cells); type: in vivo, mice; conditions: 24 h reflow
Experimental: as §2
For the TUNEL assay to detect apoptotic nuclei, we utilized the ApoAlert DNA Fragmentation Assay Kit (Clontech). Paraffin sections were deparaffinized through zylene and descending grades of ethanol, fixed with 4% formaldehyde/PBS for 30 min at 4° C., permeabilized with proteinase K at room temperature for 15 min and 0.2% triton X-100/PBS for 15 min at 4° C., and incubated with a mixture of nucleotides and TdT enzyme for 60 min at 37° C. The reaction was terminated with 2×SSC, the sections washed with PBS, and mounted with Crystal/mount (Biomeda, Foster City, Calif.). TUNEL-positive apoptotic nuclei were detected by visualization with a fluorescent microscope. […] Merely TUNEL positive cells, in the absence of morphologic criteria, were not considered apoptotic. Slides were examined in a blinded fashion, and apoptosis was quantified by counting the number of TUNEL positive nuclei per 100 cells counted in an average of five high power (40×) fields in each section.

tubule epithelial cells [7] = assay: PCNA proliferation assay on kidney sections; type: in vivo, mice; conditions: 24 h reflow
Experimental: as §2
For detection of proliferating cells, sections were incubated with a monoclonal antibody to Proliferating Cell Nuclear Antigen (PCNA, 1:500 dilution, Upstate Biotechnology), and detection accomplished by immunoperoxidase staining as recommended by the manufacturer (ImmunoCruz Staining System, Santa Cruz Biotechnology). Slides were examined in a blinded fashion, and proliferation was quantified by counting the number of PCNA positive cells per 100 cells counted in an average of five high power (40×) fields in each section.

B1: NGAL: Purified endotoxin-free recombinant NGAL expressed as GST fusion protein in bacteria, thrombin cleaved (protein, UniProt P80188 21-198, looked up)
Neutrophil …: QDSTSDLIPAPPLSKVPLQQNFQDNQFQGKWYVVGLAGNAILREDKDPQKMYATIYELKEDKSYNVTSVLFRKKKCDYWIRTFVPGCQPGEFTLGNIKSYPGLTSYLVRVVSTNYNQHAMVFFKKVSQNREYFKITLYGRTKELTSELKENFIRFSKSLGLPENHIVFPVPIDQCIDG
In the case of B1, the “plasma creatinine 24 hours after reperfusion” value (“plasma creatinine 24 hours” below) ([1]; 1 μg NGAL (not protective)) is reported as 3.09 ± 0.11 mg/dL, the “plasma creatinine 24 hours” value ([1]; 100 μg NGAL 15 minutes before clamping, untreated 3.16±0.17) is reported as 1.18 ± 0.18 mg/dL and the plasma creatinine ([1]; NGAL 2 hours after ischemia (no protective effect)) is reported as 3.12 ± 0.35 mg/dL. The “plasma creatinine 24 hours” value ([1]; NGAL one hour after reperfusion) was 1.60 ± 0.28 mg/dL, the “protection against ATN (creatinine, FIG. 17A)” value ([1]; administered later than one hour after ischemia) was “ineffective” and the “histopathologic score (dilatation, casts, cell necrosis; scale 0 to 4)” value [2] was “significantly improved score”. The “upregulation of HO-1 over ATN alone” value (heme oxygenase-1 (HO-1); ATN-injured mice, 10-100 μg NGAL, 24 hours after reperfusion) was 5-10 fold, the “expression of HO-1 after NGAL injection” value (heme oxygenase-1 (HO-1); healthy mice (Sham), increasing doses of NGAL) was “much less than the NGAL-treated ATN-injured kidneys” and the “NGAL in urine by Western blot” value [3] was “detected in the urine within one hour of injection; also recorded: easily detected in the kidney and urine”. For the same molecule, the “NGAL in kidney by immunofluorescence” value ([3]; ischemic mice) was “easily detected in a punctate cytoplasmic distribution predominantly in the proximal tubules”, the “percent of cortical tubules with at least one BrDU-positive tubular cell” value (cortical tubules [4]) was 3.9%±0.5 and the “N-cadherin expression in ischemic kidney” value (N-cadherin) was “preserved N-cadherin immunofluorescence, enhanced the expression of full length N-cadherin and reduced the appearance of its fragment; also recorded: rescued”. The “percentage of cortical tubules with at least one TUNEL-positive tubular cell” value (cortical tubules [5]) was 2.9%±0.9, the “apoptotic tubule epithelial cells (TUNEL-positive nuclei per hundred cells)” value (tubule epithelial cells [6]; NGAL during ischemia) was 7.6%±0.8 and the “apoptotic tubule epithelial cells (TUNEL-positive nuclei per hundred cells)” value (tubule epithelial cells [6]; NGAL one hour after ischemia) was 8.5%±0.8. For the same molecule, the “apoptotic tubule epithelial cells (TUNEL-positive nuclei per hundred cells)” value (tubule epithelial cells [6]; NGAL one hour before ischemia, saline 12.6%±2.2) was 6.7%±1.6, the “PCNA-positive tubule epithelial cells per hundred cells” value (tubule epithelial cells [7]; NGAL during ischemia) was 14.9%±1.2 and the “PCNA-positive tubule epithelial cells per hundred cells” value (tubule epithelial cells [7]; NGAL one hour after ischemia) was 14.5%±1.2. The “PCNA-positive tubule epithelial cells per hundred cells” value (tubule epithelial cells [7]; NGAL one hour before ischemia, saline 4.4%±1.2) was 19.1%±2.1.
